Results taken from patent EP3689907A1 (Numab Therapeutics AG, dated 2020).

T1: human IL-17E (human, UniProt Q9H293 33-177)
T1 construct: also called IL-25
T1 sequence: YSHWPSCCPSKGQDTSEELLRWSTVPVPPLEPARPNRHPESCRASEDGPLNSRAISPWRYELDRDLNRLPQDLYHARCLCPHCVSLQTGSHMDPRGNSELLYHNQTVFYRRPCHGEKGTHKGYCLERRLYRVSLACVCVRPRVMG

T2: human IL-17D (human, UniProt Q8TAD2 16-202, limits assumed)
T2 sequence: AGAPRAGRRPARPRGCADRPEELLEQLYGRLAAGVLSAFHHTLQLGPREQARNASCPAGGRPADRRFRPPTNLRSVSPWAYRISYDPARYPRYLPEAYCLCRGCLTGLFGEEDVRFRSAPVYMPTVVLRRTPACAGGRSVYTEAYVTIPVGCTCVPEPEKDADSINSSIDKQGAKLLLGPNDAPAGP

T3: human IL-17B (human, UniProt Q9UHF5 21-180)
T3 sequence: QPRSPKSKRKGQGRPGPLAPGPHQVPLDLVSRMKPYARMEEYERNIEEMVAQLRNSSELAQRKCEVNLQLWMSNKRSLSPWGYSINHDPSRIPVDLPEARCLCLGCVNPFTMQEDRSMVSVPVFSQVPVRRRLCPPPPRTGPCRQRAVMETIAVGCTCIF

T4: human IL-17C (human, UniProt Q9P0M4 19-197)
T4 sequence: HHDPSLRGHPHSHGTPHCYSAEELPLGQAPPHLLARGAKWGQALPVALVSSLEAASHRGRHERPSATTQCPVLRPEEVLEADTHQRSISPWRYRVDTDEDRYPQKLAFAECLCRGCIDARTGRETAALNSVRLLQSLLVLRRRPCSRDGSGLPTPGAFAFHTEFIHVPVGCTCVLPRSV

T5: human IL-17F (human, UniProt Q96PD4 31-163)
T5 construct: Peprotech Cat. No. 200-25 in the direct ELISA
T5 sequence: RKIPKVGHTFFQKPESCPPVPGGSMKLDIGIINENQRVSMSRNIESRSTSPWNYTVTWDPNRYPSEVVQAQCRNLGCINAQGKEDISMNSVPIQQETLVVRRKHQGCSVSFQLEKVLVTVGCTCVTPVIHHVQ

T6: cynomolgus monkey IL-17A (cynomolgus monkey (Macaca fascicularis))
T6 chain: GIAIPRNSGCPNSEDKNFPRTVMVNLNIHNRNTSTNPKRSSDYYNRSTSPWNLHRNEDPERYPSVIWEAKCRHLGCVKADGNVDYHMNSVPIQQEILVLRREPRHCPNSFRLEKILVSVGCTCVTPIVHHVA


Tests used:
human IL-17E = target: T1, human IL-17E; assay: competition ELISA: coated scFv, biotinylated IL-17A, unlabeled cytokine as competitor
human IL-17D = target: T2, human IL-17D; assay: as above
human IL-17B = target: T3, human IL-17B; assay: as above
human IL-17C = target: T4, human IL-17C; assay: as above
human IL-17F = target: T5, human IL-17F; assay: as above
cynomolgus monkey IL-17A = target: T6, cynomolgus monkey IL-17A; assay: SPR (Biacore T200), cynomolgus IL-17A (Trenzyme), scFv as analyte

Row | binding result (human IL-17E) | binding result (human IL-17D) | binding result (human IL-17B) | binding result (human IL-17C) | binding result (human IL-17F) | Kd (cynomolgus monkey IL-17A) [nM] | koff (cynomolgus monkey IL-17A) [s⁻¹] | kon (cynomolgus monkey IL-17A) [M⁻¹ s⁻¹] | Binder
1 | no binding | no binding | no binding | no binding | no binding | 0.0331 | 3.88e-05 | 1.17e+06 | PRO571 (scFv, also called 27-31-C04-sc01; 27_31_C04_sc01) scFv: DIQMTQSPSSLSASVGDRVTITCQASESIYRYLSWYQQKPGKAPKLLIYLASTLTSGVPSRFSGSGSGTDFTLTISSLQPEDFATYYCQSNFGTASTTYYNTFGGGTKLTVLGGGGGSGGGGSGGGGSGGGGSEVQLVESGGGLVQPGGSLRLSCAASGFSFSGFYYMCWVRQAPGKGLEWIGCIDTGDGTTYYASWAKGRFTISRDNSKNTVYLQMNSLRAEDTAVYYCARDAAYGGYAYPAHGMDLWGQGTLVTVSS
2 | no binding | no binding | no binding | no binding | no binding | 0.16 | 5.38e-05 | 336000 | PRO592 (scFv, also called 27-31-C04-sc02; 27_31_C04_sc02) scFv: DIQMTQSPSSLSASVGDRVTITCQASESIYRYLSWYQQKPGKAPKLLIYLASTLTSGVPSRFSGSGSGTDFTLTISSLQPEDFATYYCQSNFGTASTTYYNTFGGGTKLTVLGGGGGSGGGGSGGGGSGGGGSEVQLVESGGGLVQPGGSLTLSCAASGFSFSGFYYMCWVRQAPGKGLEWIGCIDTGDGTTYYASWAKGRFTISRDNSKNTVYLQMNSLRAEDTAVYYCARDAAYGGYAYPAHGMDLWGPGTLVTVSS
